Results as given in publication PMC13577073, “Cryo-EM structure of the glycosylated protein CgeA in the crust of Bacillus subtilis endospores” (The Journal of Microbiology, 2025).

B1: CgeA protein from Bacillus subtilis, wild type (natural protein, B. subtilis, UniProt P42089 1-133, looked up)
chain: MSSENAQLKKDLIKAVLSPLFPTATEGGENMDSNLKALLDAAIDQKVDESETVTAESILDPSLPARWIFARITPGTTISIVTDSGDMIGPVVFVAFDQVHGIVFVTQESSVTPAGQATTLIDVDKVESVTFFS
notes: CgeA, spore crust protein of B. subtilis; synthesized cgeA gene subcloned into NcoI/XhoI of pProEx-Hta; also called CgeA (WT); wild-type CgeA; source: E. coli BL21 (DE3), purified (Ni-NTA, TEV cleavage, HiTrap Q, Superdex 200); not shown: His6, N-terminal, cleaved
B2: CgeA A42C/D97C variant (natural protein, B. subtilis, UniProt P42089 1-133, looked up)
chain: MSSENAQLKKDLIKAVLSPLFPTATEGGENMDSNLKALLDACIDQKVDESETVTAESILDPSLPARWIFARITPGTTISIVTDSGDMIGPVVFVAFCQVHGIVFVTQESSVTPAGQATTLIDVDKVESVTFFS
notes: CgeA of B. subtilis with two cysteine mutations, made from pProEx-Hta-CgeA (WT) by QuikChange; residues 62-109 and 115-133 are modelled in the cryo-EM structure; The cysteines were designed to form a disulfide bond, which could not be seen unambiguously in the map; also called CgeA A42C/D97C mutant; CgeA mutant; source: E. coli BL21 (DE3), purified (Ni-NTA, TEV cleavage, HiTrap Q, Superdex 200); …

Tests used:
[1] = target: the molecule itself; test: SEC-MALS; Superdex 200 Increase 10/300 GL; 20 mM Tris-HCl (pH 8.0), 150 mM NaCl; DAWN HELIOS II
[2] = target: the molecule itself; test: SEC; wild type and A42C/D97C mutant compared; Superdex 200 column calibrated with reference proteins

Protein | stoichiometry N [1] | stoichiometry N [2]
B1 | 6 | 
B2 |  | 6
